T1: Hypothetical Protein 006819-2510, Similar to Hemerocallis Senescence-Related Protein 5, bait fragment aa 1-150 (Oryza sativa)
T1 construct: bait; also called Os006819-2510; PN20462
T1 chain: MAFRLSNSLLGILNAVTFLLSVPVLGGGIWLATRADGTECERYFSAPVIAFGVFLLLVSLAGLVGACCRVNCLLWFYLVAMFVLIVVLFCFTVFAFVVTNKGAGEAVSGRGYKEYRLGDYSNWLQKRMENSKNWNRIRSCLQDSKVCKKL

T2: Soluble Starch Synthase, prey clone aa 68-270 (Oryza sativa, UniProt A2Y9M4 68-270)
T2 construct: prey; AD fusion; input trait library; also called OsSSS; PN19701
T2 sequence: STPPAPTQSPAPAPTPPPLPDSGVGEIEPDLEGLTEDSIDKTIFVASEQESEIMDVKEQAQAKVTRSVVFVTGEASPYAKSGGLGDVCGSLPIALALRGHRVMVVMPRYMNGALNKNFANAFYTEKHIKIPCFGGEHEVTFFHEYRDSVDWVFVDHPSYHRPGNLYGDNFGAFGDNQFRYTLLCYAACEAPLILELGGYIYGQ

T3: Soluble Starch Synthase, prey clone aa 97-263 (Oryza sativa, UniProt A2Y9M4 97-263)
T3 construct: prey; AD fusion; output trait library; also called OsSSS; PN19701
T3 sequence: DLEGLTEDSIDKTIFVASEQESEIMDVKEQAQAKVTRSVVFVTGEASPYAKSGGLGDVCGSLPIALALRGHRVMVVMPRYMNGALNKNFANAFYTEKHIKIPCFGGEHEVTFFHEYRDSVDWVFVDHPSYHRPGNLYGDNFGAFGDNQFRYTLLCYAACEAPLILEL

T4: Elicitor responsive protein, bait fragment aa 23-120 (Oryza sativa, UniProt Q0JBH9 23-120)
T4 construct: bait; also called OsERP; PN20696
T4 sequence: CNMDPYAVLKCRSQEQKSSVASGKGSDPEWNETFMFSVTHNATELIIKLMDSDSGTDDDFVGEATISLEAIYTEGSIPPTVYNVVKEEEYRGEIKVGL

T5: O. sativa Serine/Threonine Protein Phosphatase PP2A-2, Catalytic Subunit, bait fragment aa 150-308 (Oryza sativa, UniProt A2XN40 150-307)
T5 construct: bait; also called OsPP2A-2; PN20254
T5 sequence: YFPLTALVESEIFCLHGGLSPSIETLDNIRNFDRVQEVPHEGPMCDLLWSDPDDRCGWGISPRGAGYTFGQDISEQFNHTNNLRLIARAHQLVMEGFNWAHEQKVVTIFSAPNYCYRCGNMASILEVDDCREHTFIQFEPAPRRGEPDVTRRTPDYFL

T6: Hypothetical Protein 003118-3674 Similar to Lycopersicon esculentum Calmodulin, bait fragment aa 75-149 (Oryza sativa, UniProt Q84VG0 75-148)
T6 construct: bait; also called PN20551
T6 sequence: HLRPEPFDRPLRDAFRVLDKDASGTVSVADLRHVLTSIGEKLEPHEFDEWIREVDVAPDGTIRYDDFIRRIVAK

T7: Auxin induced protein-like PN24061, prey clone aa 34-236 (Oryza sativa, UniProt A2XLV9 34-236)
T7 construct: prey; AD fusion; output trait library
T7 sequence: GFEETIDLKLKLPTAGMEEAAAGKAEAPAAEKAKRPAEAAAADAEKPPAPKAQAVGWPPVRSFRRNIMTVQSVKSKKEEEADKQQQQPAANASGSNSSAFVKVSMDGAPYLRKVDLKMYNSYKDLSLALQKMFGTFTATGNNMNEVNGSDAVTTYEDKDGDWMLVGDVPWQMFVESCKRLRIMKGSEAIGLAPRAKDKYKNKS

B1: Novel Protein PN29950, prey clone aa 50-343 (other)
chain: ASSRSEPVGLGGGLQPKRRSRTAKPPGSSSDTGEVVNSSRISNSQNAVSMGQQVLQALASQNTNVNRSHVTDSPLPSTTSQFSGGMPPRRQGGEGQVDFGSMISSVLNNPAFGNLLSNVAEQTGMGSAGDLRNMVEECAQSPAIMDTMSNLVQNVDGSGRGQGGIDLSRMMQQMMPVVSQVLGGAGARPAGTNSGQSRLQPRRSDMRVDDASDYGNSQIDLHQAREHIEQHDSPRDIFGAVLETAAQAYGEDESIEDMLEELVSDPELTDDYLKLLLQQVRQRIQSASQSGNQS
notes: prey; AD fusion; output trait library; also called OsPN29950
B2: HSP70-like PN23949, prey clone aa 244-418 (other)
chain: HKLKSSLILMPMVSLLLLLLIRVLGRNRISPSPALSTLPKDEVERMVEEADKFAQEDKEKRDAIDTKNQADSVVYQTEKQLKELGDKVPAPVKEKVDAKLNELKEAIAGGSTQSMKDAMAALNEEVMQIGQAMYNQQPNAGAAGPTPGADAGPTSSGGKGPNDGDVIDADFTDSN
notes: prey; AD fusion; output trait library
B3: Oryza sativa Putative Myosin, prey clone aa 685-888 (other)
chain: IYEQGLVLQQLKCCGVLEVVRISRSGYPTRMTHQKFARRYGFLLLEDVASQDPLSVSVAILHQFNILPEMYQVGYTKLFFRTGQIGKLEDTRNRTLHGILRVQSCFRGHQARRHARERIRGVLALQSFIRGENARKMYSSLARKHRAAIILQRNLKCWLARRYFVNIRKASVVIQSGIRGCLVRRCAGNVDLLNVLREFESKKE
notes: prey; AD fusion; output trait library; also called OsPN23878
B4: O. sativa Calreticulin Precursor, bait fragment aa 250-425 (other)
chain: PKEIPDPDAKKPEAGADEEDGEWTAPTIRNPEYKGPWKQKKIKNPNYQGKWKPPMIATPDFQDDPYIYAFDSLKSIGIELWQVKSGTLFDNILITDDAALAKTFAEETWAKHKDAEKAAFDEAEKKKEEEEAAKAGEDDDDLDDEDAEDEDKADEKADSDAEDGKDSDDEKHDEL
notes: bait; text says OsCRTC has 424 aa; also called OsCRTC; PN20544
B5: Receptor-like protein kinase-like PN31085, prey clone aa 378-553 (other)
chain: NGTISDSLGNLSELSDINLIGNNLTGHVPDSLTSLRLLQKLDLSGNDLTGPLPTFSPSVKVNVTGNLNFNGTAPGSAPSKDTPGSSSSRAPTLPGQGVLPENKKKRSAVVLATTIPVAVSVVALASVCAVLIFRKKRGSVPPNAASVVVHPRENSDPDNLVKIVMVNNDGNSSSTQ
notes: as for B2
B6: Hypothetical Protein 011994-D16, Similar to Z. mays DnaJ protein, prey clone aa 99-368 (other)
chain: FGPSFGGGGSSRGRRQRRGEDVIHPLKVSLEDLYNGTSKKLSLSRNVLCAKCKGKGSKSGASMRCPGCQGSGMKITIRQLGPSMIQQMQQPCNECKGTGESINEKDRCPGCKGEKVIQEKKVLEVHVEKGMQHNQKITFPGEADEAPDTVTGDIVFVLQQKDHSKFKRKGDDLFYEHTLSLTEALCGFQFVLTHLDNRQLLIKSNPGEVVKPDQFKAINDEGMPMYQRPFMKGKLYIHFTVEFPDSLAPEQCKALEAVLPPKPASQLTEM
notes: prey; AD fusion; output trait library; also called Os011994-D16; PN20618
B7: OsSGT1, prey clone aa 9-227 (other)
chain: LESKAKAAFVDDDFELAAELYTQAIEASPATAELYADRAQAHIKLGNYTEAVADANKAIELDPSMHKAYLRKGAACIRLEEYQTAKAALELGYSFASGDSRFTRLMKECDERIAEELTEVPVKKAEDGAAAPSVASFVEEKDDAANMDNTPPMVEVKPKYRHDFYNSATEVVLTIFAKGVPAENVVVDFGEQMLSVSIEVPGEEPYHFQPRLFSKIIPE
notes: prey; AD fusion; output trait library; also called PN20285
B8: O. sativa Glutelin CAA33838, prey clone aa 5-155 (other)
chain: VFSRFSIYFCVLLLCHGSMAQLFNPSTNPWHSPRQGSFRECRFDRLQAFEPLRKVRSEAGVTEYFDEKNELFQCTGTFVIRRVIQPQGLLVPRYTNIPGVVYIIQGRGSMGLTFPGCPATYQQQFQQFSSQGQSQSQKFRDEHQKIHQFRQ
notes: prey; AD fusion; output trait library; also called OsCAA33838; PN24775
B9: Novel Protein PN29950, prey clone aa 7-103 (other)
chain: TANLVGQITTTCTDDISVNRSAENSSQKNIPLDGVSAQSIKPSASSRSEPVGLGGGLQPKRRSRTAKPPGSSSDTGEVVNSSRISNSQNAVSMGQQV
notes: as for B1
B10: Novel Protein PN29950, prey clone aa 138-343 (other)
chain: RRQGGEGQVDFGSMISSVLNNPAFGNLLSNVAEQTGMGSAGDLRNMVEECAQSPAIMDTMSNLVQNVDGSGRGQGGIDLSRMMQQMMPVVSQVLGGAGARPAGTNSGQSRLQPRRSDMRVDDASDYGNSQIDLHQAREHIEQHDSPRDIFGAVLETAAQAYGEDESIEDMLEELVSDPELTDDYLKLLLQQVRQRIQSASQSGNQS
notes: prey; AD fusion; output trait library; two clones; also called OsPN29950
B11: Oryza sativa Putative Myosin, prey clone aa 824-935 (other)
chain: SLARKHRAAIILQRNLKCWLARRYFVNIRKASVVIQSGIRGCLVRRCAGNVDLLNVLREFESKKEAEGDQILIKASFLAELQRRILKAEATVREKDEENEMLQQRLQQYENR
notes: as for B3
B12: Novel Protein PN29037, prey clone aa 73-165 (other)
chain: VVFDKDGVLEQIGEGKGYVDMSTVDAATSCKISEAIKQKGGAFVEAPVSGSKKPAEDGQLVILAAGDKVLYDDMVPAFDVLGKKSFFLGEIGN
notes: prey; AD fusion; input trait library; also called OsPN29037
B13: OsSGT1, bait fragment aa 200-368 (other)
chain: QMLSVSIEVPGEEPYHFQPRLFSKIIPEKSRYQVLSTKVEIRLAKAEQITWTSLDYDKKPKAVPQKIIPPAESAQRPSYPSSKSKKDWDKLEAEVKKEEKEEKLEGDAALNKFFRDIYSDADEDMRRAMMKSFVESNGTVLSTNWKDVGSKKVEGSPPDGMELKKWEY
notes: bait; also called PN20285
B14: Novel Protein PN24162, Porin-like, Voltage-Dependent Anion Channel Protein, prey clone aa 28-164 (other)
chain: QKLTVSTVSSSGVGLTSTAVKKGGLYTLDVSSVYKYKSTLVDVKVDTESNISTTLTVFDVLPSTKLVTSVKLPDYNSGKVEMQYFHENASFATAVGMKPSPVVEFSGTAGAQGLAFGAEAGFDTATGKFTKYSAAIG
notes: prey; AD fusion; output trait library; also called OsPN24162
B15: Elicitor responsive protein, prey clone aa 54-144 (other)
chain: ETFMFSVTHNATELIIKLMDSDSGTDDDFVGEATISLEAIYTEGSIPPTVYNVVKEEEYRGEIKVGLTFTPEDDRDRGLSEEDIGGWKQSS
notes: prey; AD fusion; input trait library; also called OsERP; PN20696

Tests used:
Assay in all cases: yeast two-hybrid
[1] = molecular target: T8, O. sativa Calreticulin Precursor, bait fragment aa 1-150 (Oryza sativa, UniProt Q9SLY8 1-150)
T8 construct: bait; also called OsCRTC; PN20544
T8 sequence (Q9SLY8 1-150): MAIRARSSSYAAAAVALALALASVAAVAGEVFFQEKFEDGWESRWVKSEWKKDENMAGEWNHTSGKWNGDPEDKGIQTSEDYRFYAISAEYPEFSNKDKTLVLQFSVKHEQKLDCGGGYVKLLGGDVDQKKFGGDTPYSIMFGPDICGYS

[2] = molecular target: B13
Experimental: (§1) Yeast carrying the target gene construct was combined with yeast carrying the activation domain library. The two yeast strains mated to form diploid yeast and were plated on media that selected for expression of one or more Ga14p-responsive reporter genes. Thus, both hybrid proteins (i.e., the target “bait” protein and the activation domain “prey” protein) were expressed in a yeast reporter strain where an interaction between the test proteins results in transcription of the reporter genes […]. Colonies that arose after incubation were selected for further characterization. The activation domain plasmid was isolated from each colony obtained in the two-hybrid search. The sequence of the insert in this construct was obtained by sequence analysis (e.g., Sanger's dideoxy nucleotide chain termination method; see Ausubel et al., 1988, including updates up to 2002). Thus, the identity of positives obtained from these searches was determined by sequence analysis against proprietary and public (e.g., GENBANK®) nucleic acid and protein databases.
(§2) The rice SGT1 protein shares 74 and 75% amino acid sequence similarity with two Arabidopsis thaliana SGT1 homologs and 45% amino acid sequence similarity with Saccharomyces cerevisiae SGT1. In yeast, SGT1 is required for cell-cycle progression at the G1/S-phase and G2/M-phase transitions. In A. thaliana, SGT1b interacts with Rar1 and mediates disease resistance. Thus, in plants, SGT1 likely controls processes that are fundamental to disease resistance and development. The rice OsSGT1 protein was chosen as a bait for these interaction studies based on its potential relevance to disease resistance and development.

[3] = molecular target: T1, Hypothetical Protein 006819-2510, …
[4] = molecular target: T2, Soluble Starch Synthase, prey clone aa …
[5] = molecular target: T3, Soluble Starch Synthase, prey clone aa …
[6] = molecular target: T4, Elicitor responsive protein, bait …
[7] = molecular target: T5, O. sativa Serine/Threonine Protein …
[8] = molecular target: T6, Hypothetical Protein 003118-3674 …
[9] = molecular target: T7, Auxin induced protein-like PN24061, …
Experimental: as §1, §2

Binder: B1
binding result [1]: binds

Binder: B2
binding result [2]: binds

Binder: B3
binding result [3]: binds

Binder: B4
binding result [4]: binds
binding result [5]: binds

Binder: B5
binding result [6]: binds

Binder: B6
binding result [7]: binds

Binder: B7
binding result [2]: binds

Binder: B8
binding result [7]: binds

Binder: B9
binding result [1]: binds

Binder: B10
binding result [1]: binds

Binder: B11
binding result [8]: binds

Binder: B12
binding result [3]: binds

Binder: B13
binding result [9]: binds

Binder: B14
binding result [7]: binds

Binder: B15
binding result [2]: binds

From patent US20060235215A1 (published 2006)
